The record followed here is US20140087995A1 (published 2014).

By IC50 is commonly meant the concentration at which inhibition is half-maximal.

Numbered stars: 1 amine (or outer) side, 2 acyl side, 3 side chain; on linkers, the order of the positions; unused ones are H or OH. Bridge positions count the residues as written; N and C are the ends. Side chains are listed from the residue outwards. Ends that are not written are not given here. * marks the point of attachment. C20 diacid = O=C(O)CCCCCCCCCCCCCCCCCCC(=O)*; γGlu = O=C(O)[C@H](CCC(=O)[*:2])N[*:1]

The target of experiment [1] is T1, human calcitonin receptor (human, UniProt P30988 25-474).
T1 construct: whole, on cells; also called hCTR; hCT
T1 sequence (looked up): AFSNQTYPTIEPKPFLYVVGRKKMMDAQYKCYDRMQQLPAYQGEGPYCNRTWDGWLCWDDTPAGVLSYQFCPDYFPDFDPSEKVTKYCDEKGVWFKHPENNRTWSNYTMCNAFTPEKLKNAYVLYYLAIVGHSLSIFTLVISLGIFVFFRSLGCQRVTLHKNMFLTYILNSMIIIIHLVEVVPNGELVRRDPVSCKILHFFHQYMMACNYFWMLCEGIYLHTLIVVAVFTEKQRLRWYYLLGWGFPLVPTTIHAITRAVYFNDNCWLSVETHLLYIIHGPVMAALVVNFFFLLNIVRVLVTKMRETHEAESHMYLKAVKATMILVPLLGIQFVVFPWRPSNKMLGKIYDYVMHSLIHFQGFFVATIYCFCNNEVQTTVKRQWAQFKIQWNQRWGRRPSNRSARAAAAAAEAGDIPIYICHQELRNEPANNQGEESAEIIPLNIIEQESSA
The experiment can be described thus: SPA radioligand competition (125I-calcitonin), membranes of BHK cells with human calcitonin receptor. The method in brief:
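BHK hCTR membranes 35 ng/μL + SPA beads 0.05 mg/well; buffer 50 mM Hepes pH 7.4, 1 mM CaCl2, 5 mM MgCl₂, 0.1% OA, 0.02% Tween20. 120 min, 25° C., shaking. Scintillation count; IC50 by one-site binding competition.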
A general note: Displacement assays read how much labelled ligand stays bound in the presence of the test substance.

In experiment [2] the target is T1, human calcitonin receptor. The experiment can be described thus: ratio of IC50 at human calcitonin receptor to IC50 at human amylin receptor (SPA competition assays). The method in brief:
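IC₅₀ values were derived by one-site competition analysis of SPA counts. Cell membranes (35 ng/μL) with SPA beads were incubated with test compounds for 120 min at 25° C in Hepes buffer, pH 7.4, containing CaCl2, MgCl₂, OA and Tween20.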

B1: N^ε1-[(4S)-4-carboxy-4-(19-carboxynonadecanoylamino)butanoyl]-[Arg17,Pro21,Pro27,His34]-h-amylin (peptide)
peptide: K([γGlu-C20 diacid])CNTATCATQRLANFLRHSSPNFGAIPSSTNVGHNTY-NH2
modifications: disulfide 2-7; N-terminus assumed
SMILES: CC[C@H](C)[C@H](NC(=O)[C@H](C)NC(=O)CNC(=O)[C@H](Cc1ccccc1)NC(=O)[C@H](CC(N)=O)NC(=O)[C@@H]1CCCN1C(=O)[C@H](CO)NC(=O)[C@H](CO)NC(=O)[C@H](Cc1c[nH]cn1)NC(=O)[C@H](CCCNC(=N)N)NC(=O)[C@H](CC(C)C)NC(=O)[C@H](Cc1ccccc1)NC(=O)[C@H](CC(N)=O)NC(=O)[C@H](C)NC(=O)[C@H](CC(C)C)NC(=O)[C@H](CCCNC(=N)N)NC(=O)[C@H](CCC(N)=O)NC(=O)[C@@H](NC(=O)[C@H](C)NC(=O)[C@@H]1CSSC[C@H](NC(=O)[C@@H](N)CCCCNC(=O)CC[C@H](NC(=O)CCCCCCCCCCCCCCCCCCC(=O)O)C(=O)O)C(=O)N[C@@H](CC(N)=O)C(=O)N[C@@H]([C@@H](C)O)C(=O)N[C@@H](C)C(=O)N[C@@H]([C@@H](C)O)C(=O)N1)[C@@H](C)O)C(=O)N1CCC[C@H]1C(=O)N[C@@H](CO)C(=O)N[C@@H](CO)C(=O)N[C@H](C(=O)N[C@@H](CC(N)=O)C(=O)N[C@H](C(=O)NCC(=O)N[C@@H](Cc1c[nH]cn1)C(=O)N[C@@H](CC(N)=O)C(=O)N[C@H](C(=O)N[C@@H](Cc1ccc(O)cc1)C(N)=O)[C@@H](C)O)C(C)C)[C@@H](C)O
notes: also called compound 77
Consider B1, for which the IC50 in experiment [1] was determined as 50.7 nM. Further, in experiment [2], the “Ratio hCT/hAmylin binding” value stood at 118.

B2: N^ε1-[(4S)-4-carboxy-4-[[(4S)-4-carboxy-4-(19-carboxynonadecanoylamino)butanoyl]amino]butanoyl]-[Ser14,Arg17,Pro21,Pro27,Pro34,Glu35]-h-amylin (peptide)
peptide: K([γGlu-γGlu-C20 diacid])CNTATCATQRLASFLRHSSPNFGAIPSSTNVGPETY-NH2
modifications: disulfide 2-7; N-terminus assumed
SMILES: CC[C@H](C)[C@H](NC(=O)[C@H](C)NC(=O)CNC(=O)[C@H](Cc1ccccc1)NC(=O)[C@H](CC(N)=O)NC(=O)[C@@H]1CCCN1C(=O)[C@H](CO)NC(=O)[C@H](CO)NC(=O)[C@H](Cc1c[nH]cn1)NC(=O)[C@H](CCCNC(=N)N)NC(=O)[C@H](CC(C)C)NC(=O)[C@H](Cc1ccccc1)NC(=O)[C@H](CO)NC(=O)[C@H](C)NC(=O)[C@H](CC(C)C)NC(=O)[C@H](CCCNC(=N)N)NC(=O)[C@H](CCC(N)=O)NC(=O)[C@@H](NC(=O)[C@H](C)NC(=O)[C@@H]1CSSC[C@H](NC(=O)[C@@H](N)CCCCNC(=O)CC[C@H](NC(=O)CC[C@H](NC(=O)CCCCCCCCCCCCCCCCCCC(=O)O)C(=O)O)C(=O)O)C(=O)N[C@@H](CC(N)=O)C(=O)N[C@@H]([C@@H](C)O)C(=O)N[C@@H](C)C(=O)N[C@@H]([C@@H](C)O)C(=O)N1)[C@@H](C)O)C(=O)N1CCC[C@H]1C(=O)N[C@@H](CO)C(=O)N[C@@H](CO)C(=O)N[C@H](C(=O)N[C@@H](CC(N)=O)C(=O)N[C@H](C(=O)NCC(=O)N1CCC[C@H]1C(=O)N[C@@H](CCC(=O)O)C(=O)N[C@H](C(=O)N[C@@H](Cc1ccc(O)cc1)C(N)=O)[C@@H](C)O)C(C)C)[C@@H](C)O
notes: also called compound 120
As for B2, the IC50 in experiment [1] came out at 3.44 nM. In addition, the “Ratio hCT/hAmylin binding” value in experiment [2] turned out to be 45.3.
